Source: the supplement of paper PMC10724198
± gives the standard deviation of the averaged measurements.

Test system: Saccharomyces cerevisiae
Experiment: protein stability index of tFT-peptide fusion (C-terminal peptide) (PSI (0-1 scale)); higher = more stable (slower turnover)
Conditions: genetic background: wild type; temperature: 30 C
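Further: PSI is a weighted mean of sequencing reads over stability bins, variants kept only with over 10 reads, mCherry proximal and sfGFP distal, peptide attached via GGGS linker.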

Point of comparison: RARPPPQLHLSP, protein stability index 0.745 ± 0.012. Against it:
- RAFGQGMGLAFS — within error, 0.737 ± 0.0082
- RAGKEGRVSSSK — lower, 0.6619 ± 0.0057
- RAKRPAGTSTRG — lower, 0.604 ± 0.016
- RALRAGVGVRAC — within error, 0.662 ± 0.08
- RAPPAARIASGL — lower, 0.677 ± 0.026
- RARPGKATSAFH — within error, 0.73 ± 0.019
- RAYRSTCRCSER — within error, 0.669 ± 0.081
- RCFLFSPCWAFS — lower, 0.5889 ± 0.002
- RCGLVGILCSSI — lower, 0.5632 ± 0.004
- RCGRSVSCLATG — within error, 0.696 ± 0.042
- RCGVGGSVSFWW — within error, 0.689 ± 0.05
- RCHGRVNLAEGE — within error, 0.7564 ± 0.00055
- RCLRYFVWRLGW — within error, 0.709 ± 0.12
- RCLSRLSALGTD — lower, 0.624 ± 0.076
- RCNCTTTTLRSK — lower, 0.6046 ± 0.0019
- RCPDSARRWRVP — lower, 0.7111 ± 0.0045
- RCPVFRCITGGL — lower, 0.61 ± 0.031
- RCTLFGMDQSSA — lower, 0.642 ± 0.027
- RCTRQVHPLTFR — lower, 0.66 ± 0.038
- RCVRLSISILRP — lower, 0.586 ± 0.038
- RCWVTVIRSVRS — lower, 0.601 ± 0.067
- RDELRTSAGKGS — lower, 0.659 ± 0.055
- RDERDWDGSSWA — within error, 0.708 ± 0.03
- RDGRNSKPTYQP — lower, 0.667 ± 0.025
- RDLVEQTLHIEY — lower, 0.667 ± 0.013
- REEGIEKKEKIR — lower, 0.678 ± 0.03
- REGCYVRGGILL — within error, 0.68 ± 0.072
- REGRTRGTAAER — lower, 0.679 ± 0.027
- REKARNEKRRKT — lower, 0.651 ± 0.0075
- REKEKGYLNKKK — within error, 0.743 ± 0.041
- RELLYLPPPSDP — higher, 0.821 ± 0.051
- REPFCVVGGREG — lower, 0.681 ± 0.04
- RERAQEMGIRNE — lower, 0.675 ± 0.031
- RERRFFPPSGFS — lower, 0.71 ± 0.018
- REWLGCYVFGVR — lower, 0.677 ± 0.022
- RFASVLSLPLSV — within error, 0.642 ± 0.13
- RFCRPLSHTALA — lower, 0.632 ± 0.028
- RFCRSGCWFRWG — lower, 0.607 ± 0.015
- RFFAVSLGGLEF — lower, 0.687 ± 0.031
- RFGGVWRCRGFV — lower, 0.696 ± 0.031
- RFPLPGLISFSS — within error, 0.742 ± 0.056
- RFPSLCVPFLFP — lower, 0.678 ± 0.013
- RFPSRLLVPPPP — within error, 0.698 ± 0.077
- RFRYFSPLSTTS — lower, 0.671 ± 0.027
- RFSKGKPVSAGG — lower, 0.632 ± 0.033
- RFTCYLCLKGLL — within error, 0.681 ± 0.052
- RFVRGEFLWGVC — lower, 0.663 ± 0.044
- RFVTLLSDFFLL — within error, 0.681 ± 0.063
- RFWIVVRRQTRT — lower, 0.6447 ± 0.00089
- RGACGWVDWWGL — within error, 0.856 ± 0.13
- RGAGYQLFGPPR — within error, 0.698 ± 0.037
- RGARRGAPVCGW — lower, 0.71 ± 0.0075
- RGASKYDGDSRR — lower, 0.668 ± 0.016
- RGATAKGQRRVR — lower, 0.686 ± 0.046
- RGCGAIYRGSCG — lower, 0.707 ± 0.021
- RGCGGGTGDGRG — within error, 0.697 ± 0.045
- RGELSGVRVSVR — lower, 0.645 ± 0.043
- RGFGFAYVSEHI — within error, 0.708 ± 0.075
- RGFGGVLGRVFL — within error, 0.725 ± 0.017
- RGFGSLSKPMCH — lower, 0.711 ± 0.012
- RGFLHVRCRDTC — lower, 0.7049 ± 0.0011
- RGGAGSWDWEAG — within error, 0.707 ± 0.028
- RGGGGAKGEGVR — within error, 0.707 ± 0.048
- RGGGGGSAVEGG — lower, 0.635 ± 0.095
- RGGGGGVWGHVV — lower, 0.58 ± 0.02
- RGGGVVRGCSGG — lower, 0.679 ± 0.014
- RGGRGLECAFYI — higher, 0.7903 ± 0.001
- RGGVGGSVSFWW — within error, 0.707 ± 0.072
- RGGVGWGVFRVS — within error, 0.679 ± 0.064
- RGGWGGGGAAGS — lower, 0.649 ± 0.053
- RGIEQRHFPKGA — lower, 0.7 ± 0.011
- RGKREEQVRGGD — lower, 0.622 ± 0.035
- RGKVVRLLLERM — within error, 0.72 ± 0.067
- RGLVIWRVGGMK — lower, 0.66337 ± 0.00065
- RGMPMARVRSAG — within error, 0.693 ± 0.054
- RGNAMSFVCVGE — within error, 0.658 ± 0.096
- RGNPLLWHSSPR — lower, 0.657 ± 0.051
- RGPLNPNWPPTD — within error, 0.7 ± 0.037
- RGPPIPTLRYQH — within error, 0.746 ± 0.079
- RGPTGEDLCSAM — lower, 0.696 ± 0.032
- RGPVSQNPEINF — within error, 0.732 ± 0.02
- RGRGGDERSVRG — lower, 0.644 ± 0.013
- RGRGKAGGETTV — lower, 0.686 ± 0.035
- RGRVLDTRDWGP — lower, 0.666 ± 0.059
- RGSCPFQSWRCS — lower, 0.59 ± 0.038
- RGSGEVVLFGVG — lower, 0.671 ± 0.057
- RGSRVDLKLSKK — lower, 0.678 ± 0.019
- RGSWRGLADSGV — within error, 0.676 ± 0.08
- RGTYACGMGGVG — lower, 0.654 ± 0.074
- RGVAGSTLGLRI — lower, 0.566 ± 0.069
- RGVGGREGAAPV — lower, 0.691 ± 0.0093
- RGVIKNKIKRLK — within error, 0.768 ± 0.078
- RGVRGLWGGKRG — lower, 0.626 ± 0.015
- RGWDEHRVGSEY — within error, 0.671 ± 0.095
- RGWKGGLSLGEI — lower, 0.586 ± 0.021
- RGWLSAWDENGK — lower, 0.704 ± 0.019
- RHGTRHKLLGTL — lower, 0.659 ± 0.016
- RHIDSRDPTDSP — lower, 0.651 ± 0.081
- RHLFGTGIMPER — within error, 0.683 ± 0.12
- RHPLPHNLSPYP — higher, 0.78 ± 0.0065
- RHPSAPRPVPLM — within error, 0.695 ± 0.11
- RHTYSPRAPVPD — lower, 0.707 ± 0.025
- RIEKYKKKKETK — within error, 0.712 ± 0.084
- RIIHIHKLFLRR — within error, 0.677 ± 0.071
- RIKHKNRNKKKN — higher, 0.791 ± 0.033
- RIKQKEEKRNRY — higher, 0.779 ± 0.01
- RILSFVSCYSLL — lower, 0.506 ± 0.0035
- RILVFCPSSFGL — lower, 0.64 ± 0.018
- RINGPLHRLSVA — lower, 0.657 ± 0.015
- RIQYKKKNRKGI — lower, 0.628 ± 0.037
- RITMNMHSLIIP — within error, 0.711 ± 0.032
- RITTVPNSNPGN — within error, 0.689 ± 0.08
- RITVPIGYHSVS — lower, 0.6891 ± 0.0009
- RKAEWIKQYDMH — lower, 0.479 ± 0.072
- RKEGRGEEPEKG — lower, 0.65 ± 0.049
- RKGNHAHEPSCI — lower, 0.686 ± 0.0034
- RKIERKHIKEFS — lower, 0.664 ± 0.0089
- RKIKKRITREKM — lower, 0.617 ± 0.082
- RKKKKKEKKKVE — within error, 0.741 ± 0.037
- RKKKTRGKEKRR — within error, 0.683 ± 0.097
- RKKNVYGKKIKI — within error, 0.656 ± 0.083
- RKKRGKNEERQD — within error, 0.707 ± 0.056
- RKLKQGIVSKKK — lower, 0.66 ± 0.052
- RKLNRKEKLQLT — lower, 0.646 ± 0.051
- RKNKLKQNKKYR — lower, 0.718 ± 0.012
- RKNYRISYKLLD — within error, 0.715 ± 0.02
- RKRSRQLNRQLK — lower, 0.603 ± 0.0074
- RKTKKKKENKRR — lower, 0.7131 ± 0.0043
- RKTSIKNKKKKI — within error, 0.693 ± 0.059
- RKVTSIESGVMT — lower, 0.655 ± 0.038
- RKVYHSTRNTRK — within error, 0.702 ± 0.11
- RLCFAPRVLPTH — lower, 0.604 ± 0.041
- RLDMKLAIDISR — higher, 0.7631 ± 0.0011
- RLDRARTPPAST — within error, 0.779 ± 0.05
- RLEGNRGPWRQD — within error, 0.786 ± 0.1
- RLFCLRSVSLVS — lower, 0.572 ± 0.015
- RLIHRLLGLFPS — within error, 0.69 ± 0.06
- RLILLPLFLSDS — within error, 0.729 ± 0.092
- RLITGTKLFNGM — within error, 0.765 ± 0.045
- RLKLKSECYSPL — lower, 0.667 ± 0.034
- RLLLRNAASSSS — lower, 0.691 ± 0.042
- RLLPPSPPPPPS — lower, 0.667 ± 0.035
- RLPHPHPVRSLP — lower, 0.7 ± 0.022
- RLPSSPPSATWL — lower, 0.6784 ± 0.0019
- RLPSSSFSPHRA — lower, 0.688 ± 0.0069
- RLRKEKGKKIQY — within error, 0.697 ± 0.073
- RLRPLSPPTLCD — lower, 0.665 ± 0.044
- RLRRLYSLRTYL — lower, 0.543 ± 0.033
- RLTSPPYSFFLH — lower, 0.644 ± 0.019
- RLVHSRPPPFAS — within error, 0.794 ± 0.13
- RMRRAHCQQSGG — lower, 0.6537 ± 0.0037
- RNEDYQKKRKGK — lower, 0.701 ± 0.022
- RNIRGDYKGRRL — lower, 0.6455 ± 0.0019
- RNKHREEIERQT — lower, 0.672 ± 0.031
- RNKKDIKIQIKR — lower, 0.68 ± 0.049
- RNKKIKKKKGRN — within error, 0.701 ± 0.069
- RNKRPDQRERKQ — within error, 0.692 ± 0.17
- RNLHVSMGKCSP — within error, 0.722 ± 0.21
- RNLRCDIVNVYP — within error, 0.759 ± 0.015
- RNRLTTMCRHLE — lower, 0.655 ± 0.062
- RNRNDRIKKLKR — lower, 0.667 ± 0.014
- RPAAPGSKGDDN — within error, 0.7 ± 0.043
- RPAGGPRGGEGV — lower, 0.648 ± 0.058
- RPAMSPPPLCPP — lower, 0.625 ± 0.027
- RPASVHDLSLQC — lower, 0.681 ± 0.033
- RPCDLISGFCGL — lower, 0.695 ± 0.012
- RPDSPSPLPPPP — lower, 0.637 ± 0.028
- RPELRRETARVR — lower, 0.644 ± 0.038
- RPEVRTGPASTH — lower, 0.676 ± 0.032
- RPFLLWRVVTPL — lower, 0.611 ± 0.016
- RPGLCLTFFSAH — lower, 0.666 ± 0.032
- RPGSWINEITKE — lower, 0.69944 ± 0.00024
- RPKVSRIKENKY — within error, 0.727 ± 0.02
- RPLPLRLDGSGS — within error, 0.719 ± 0.047
- RPLPPPPAPPPL — within error, 0.706 ± 0.029
- RPLSPPSAPTSF — lower, 0.679 ± 0.0055
- RPLTSVTPLPTL — lower, 0.6988 ± 0.0067
- RPLVYIKHLALL — lower, 0.44 ± 0.17
- RPNTVHLQALYN — lower, 0.6802 ± 0.0046
- RPNWSRFTSIYA — lower, 0.653 ± 0.016
- RPPINRLCPWLL — lower, 0.671 ± 0.032
- RPPLIPAALLFL — lower, 0.589 ± 0.048
- RPPLLPPLDAPS — within error, 0.713 ± 0.027
- RPPLPPPPPLPP — lower, 0.578 ± 0.03
- RPPPPRPRSLLS — within error, 0.654 ± 0.097
- RPPPRSPPLPRL — higher, 0.806 ± 0.03
- RPPPSAIPPPSP — lower, 0.6274 ± 0.0014
- RPPTASPLVAPA — lower, 0.655 ± 0.0067
- RPRCAPSPPLPP — within error, 0.691 ± 0.047
- RPSLEKQETEKT — within error, 0.696 ± 0.056
- RPSLSRSSLLSP — lower, 0.701 ± 0.032
- RPTSPCPNHRLE — within error, 0.667 ± 0.097
- RQCGKGGKEGAA — lower, 0.653 ± 0.051
- RQFVTACPLWRH — lower, 0.676 ± 0.046
- RQQKTNERRPRT — lower, 0.648 ± 0.04
- RQWAISRRWVVR — lower, 0.562 ± 0.021
- RQYCTRDHNIIK — within error, 0.732 ± 0.025
- RRAGGARGKTSE — lower, 0.645 ± 0.014
- RRAGRGGIGKGG — lower, 0.591 ± 0.018
- RRDLKNVRLPDR — lower, 0.675 ± 0.055
- RRESAGFGLVWG — lower, 0.709 ± 0.017
